This is an account of results in US20260234247A1.

The assay concerns the target Cynomolgus LILRB2 on CHOK1 cells (cynomolgus). As to the kind of experiment: flow cytometry on CHOK1-cyno LILRB2 cells.

B1: LK-RB2-29 (antibody, human IgG4 S228P, kappa, V domains shown)
VH: QVQLQQSGAELARPGASVKLSCKASGYTFTSYWMQWVKQRPGQGLEWIGAIYPGDGDTRYTQKFKGKATLTADKSSSTAYMQLSSLASEDSAVYYCARGYYGSSYADYFDYWGQGTTLTVSS
VL: DIQMTQSPASLSASVGETVTITCRASGNIHNYLAWYQQKQGKSPQLLVYNAKTLADGVPSRFSGSGSGTQYSLKINSLQPEDFGSYYCQHFWSTPPTFGGGTKLEIKR
Take B1: the concentration for a half-maximal effect (EC50) (as a rule, the concentration at which the effect is half-maximal) came out at 2.09 nM.

B2: LK-RB2-27 (antibody, human IgG4 S228P, kappa, V domains shown)
VH: DVKLVESGGGLVKPGGSLKLSCAASGFTFSSYSMSWVRQTPEKRLEWVATISTGGSYTYYPDSVKGRFTISRDNAKNTLYLQMSSLKSEDTAMFYCTRGSMDYWGQGTSVTVSS
VL: DILMTQSPSSMSVSLGDTVSITCHASQDISSNIGWLQQKPGNSFKGLIYHGTNLEDGVPSRFSGSGSGADYSLTISSLESEDFADYYCVQYAQFPYTFGGGTKLEIKR
For B2, the concentration giving a half-maximal response (EC50) worked out at 2.14 nM.

B3: LK-RB2-28 (antibody, human IgG4 S228P, kappa, V domains shown)
VH: DVKLVESGGGLVKPGGSLKLSCAASGFTFSSYSMSWVRQTPEKRLEWVATISTGGSYTYYPDSMKGRFTISRDNAKNTLYLQMSSLKSEDTAMFYCTRGSMDYWGQGTSVTVSS
VL: DILMTQSPSSMSVSLGDTVSIACHASQDISSNIGWLQQKPGNSFKGLIYHGTNLEDGVPSRFSGSGSGADYSLTISSLESEDFADYYCVQYAQFPYTFGGGTKLEIKR
In turn, B3 showed an EC50 of 2.03 nM.

B4: LK-RB2-34 (antibody, human IgG4 S228P, kappa, V domains shown)
VH: DVKVVESGGGLVKPGGSLKLSCAASGFTFSSYSMSWVRQTPEKRLEWVATISTGSSYTYYSDSVKGRFTISRDNAKNTLYLQMSSLKSEDTAMFYCTRGSMDYWGQGTSVTVSS
VL: DILMTQSPSSMSVSLGDTVSITCHASQDISSNIGWLQQKPGNSFKGLIYHGINLEDGVPSRFSGSGSGADYSLTISSLESEDFADYYCVQYAQFPYTFGGGTKLEIKR
In turn, B4 gave a half-maximal effective concentration (EC50) of 2.3 nM.

B5: LK-RB2-41 (antibody, human IgG4 S228P, kappa, V domains shown)
VH: EVQLQLSGPELVKPGASVKMSCKASGYTFTDYNMHWVKQSHGKSLEWIGYINPNNGGTTYNQKFKGKATLTVNKSSSTAYMELRSLTSEDSAVYYCARAPYYGSSYLLAYWGQGTLVTVSA
VL: DIVMTQSHKFMSTSVGDRVSITCKASQDVSTAVAWYQQKPGQSPKLLIYSASYRYTGVPDRFTGSGSGTDFTFTISSVQAEDLAIYYCQQHYSIPWTFGGGTKLEIKR
Molecule B5 came in with an EC50 of 1.5 nM.

B6: LK-RB2-32 (antibody, human IgG4 S228P, kappa, V domains shown)
VH: DVQLQESGPGLVKPSQSLSLTCSVTGYSITSGYYWNWIRQFPGNKLEWMGYISFDGSNHYNPSLRNRISITRDTFKNQFFLKLNSVTTEDTATFYCTRRDYNWFAYWGQGTLVTVSA
VL: DIVLTQSPVTLSVTPGDSVSLSCRASQNINKNLHWYQQRSHESPRLLIKYVSQSISGIPSRFSGSGSGTDFTLSINSVETEDFGMYFCQQSNSWPLTFGAGTKLELRR
Molecule B6 registered an EC50 of 5.72 nM.

B7: LK-RB2-30 (antibody, human IgG4 S228P, kappa, V domains shown)
VH: EVQLVESGGGLVQPGGSLKLSCAASGFTFNTDGMSWVRQTPDKRLELVAIINSNGGSTYYPDSVKGRFTISRDNAKNTLYLQMSSLKSEDTAMYYCAREGSYGSWFAYWGQGTLVTVSA
VL: DIQMTQSPASLSVSVGETVTITCRASENINNNLAWYHQKQGKSPQLLVYAATNLADGVPSRFSGSGSGTQYSLKINSLQSEDFGSYYCQHFWGTPFTFGGGTKLEIKR
As to B7, the 50% effective concentration (EC50) was found to be 1.04 nM.

B8: LK-RB2-31 (antibody, human IgG4 S228P, kappa, V domains shown)
VH: QVQLQQPGAELVKPGASMKLSCKASGYTFTTYYMYWVKQRPGLGLEWIGGINPSNGGTTFNEKFKNKATLTVDKSSSTAYMQLRSLTSEDSAVYYCTRWRFFDVWGAGTTVTVSS
VL: SIVMTQTPEFLLVSAGDRVTITCKASQSVNNDVAWFQQKPGQSPKLLIYYASNRYTGVPDRFTGSGYGTDFTFTISTVQAEDLAIYFCQQDYSSPPTFGGATKLEIKR
B8 yielded a half-maximal effective concentration (EC50) of 1.59 nM.
